We go through 167 variants from the RNAGym collection of RNA variant scans (doi:10.7554/elife.80360).

The labels stand for the following.
B1: Hairpin Ribozyme (parent)
chain: GUCCUCUUUCACGUGCGCGUGAAAGAGAGAAGUGAACCAGAGAAACACACGUUGUGGUAUAUUACCUGGUA

This data set covers variants of B1. Briefly: self-cleavage, relative activity (ratio to wild type); higher = more cleavage; co-transcriptional.
As to G56A U67G, the self-cleavage worked out at 0.104.

G56A U67C: the self-cleavage is 0.129.

In the case of U55G C66A, the self-cleavage came out at 0.201.

Regarding G56A A64G, the self-cleavage was 0.12.

As to G56A A64C, the self-cleavage stood at 0.0783.

Take G56A A64U: the self-cleavage turned out to be 0.135.

Turning to G56C G68A, the self-cleavage was determined as 0.153.

Turning to G56C A59U, the self-cleavage stood at 0.173.

With U53G U62A, the self-cleavage is 0.0694.

In the case of U55C G68C, the self-cleavage stood at 0.159.

Take U55C G68U: the self-cleavage worked out at 0.0915.

On to U53G A64G, for which the self-cleavage turned out to be 0.599.

With U55A U60C, the self-cleavage was determined as 0.712.

On to U55G U67A, for which the self-cleavage came to 0.219.

For U55A G56A, the self-cleavage is 0.168.

With G56U C66A, the self-cleavage amounted to 0.208.

On to U55C U67C, for which the self-cleavage was 0.172.

Consider U55A U58G, for which the self-cleavage turned out to be 0.183.

As to U55A U58C, the self-cleavage was determined as 0.427.

Take G56C C66G: the self-cleavage is 0.209.

On to G56C C66A, for which the self-cleavage turned out to be 0.156.

Turning to G56C C66U, the self-cleavage was 0.199.

Take G56C U58A: the self-cleavage amounted to 0.2.

Consider G56C U58C, for which the self-cleavage was 0.246.

Take G54C C66G: the self-cleavage was 0.237.

Take U55G G57U: the self-cleavage amounted to 0.222.

U55C C66U: the self-cleavage came out at 0.157.

For the variant G56U G57A, the self-cleavage stood at 0.222.

U55C A61G: the self-cleavage was 0.181.

Regarding G54C U62G, the self-cleavage came to 0.141.

Turning to U55A U67C, the self-cleavage is 0.149.

Consider U55A A64U, for which the self-cleavage was 0.302.

Regarding G56A A59G, the self-cleavage worked out at 0.167.

Take U53G: the self-cleavage turned out to be 0.86.

Take G54U U70C: the self-cleavage was determined as 0.569.

G54U U70G: the self-cleavage worked out at 0.43.

Regarding U55A U63C, the self-cleavage stood at 0.106.

For the variant U55A U63A, the self-cleavage worked out at 0.0786.

As to U55G G68C, the self-cleavage was 0.251.

As to U55G G68A, the self-cleavage stood at 0.237.

As for U53G A71G, the self-cleavage turned out to be 0.73.

With U55G A59C, the self-cleavage turned out to be 0.156.

With U55G A59G, the self-cleavage came out at 0.139.

As to G56U A71C, the self-cleavage was found to be 0.454.

Regarding G56U A71U, the self-cleavage was found to be 0.177.

As for G56A A71C, the self-cleavage amounted to 0.404.

G54A G57C: the self-cleavage was found to be 0.149.

Take G54A C66U: the self-cleavage came to 0.272.

Consider G54A C66A, for which the self-cleavage was 0.229.

Take G54A G56C: the self-cleavage was 0.0439.

As for G54A U55A, the self-cleavage is 0.39.

With G54A U55G, the self-cleavage turned out to be 0.162.

G56A G69U: the self-cleavage came to 0.258.

In the case of G56C A71C, the self-cleavage was 0.315.

As to U53G C66A, the self-cleavage amounted to 0.131.

With U55G U60C, the self-cleavage turned out to be 0.408.

In the case of G54A U67A, the self-cleavage was 0.206.

Turning to G54A U67C, the self-cleavage came to 0.12.

Turning to U55G U62C, the self-cleavage came out at 0.161.

Regarding U55G U62A, the self-cleavage is 0.104.

Turning to G56C U60G, the self-cleavage stood at 0.111.

Consider G56C C65A, for which the self-cleavage stood at 0.274.

As for G54C U58C, the self-cleavage came to 0.478.

For the variant G54C U58G, the self-cleavage came out at 0.272.

Consider G54C U58A, for which the self-cleavage came out at 0.334.

Turning to G54U G69C, the self-cleavage was determined as 0.194.

Consider G54U G69U, for which the self-cleavage is 0.182.

Regarding G54A U63A, the self-cleavage was found to be 0.209.

With G56A U58A, the self-cleavage was determined as 0.0823.

As to G56A U58C, the self-cleavage worked out at 0.162.

Turning to G56A U58G, the self-cleavage came to 0.274.

For the variant U55A A59U, the self-cleavage was found to be 0.205.

With G56A, the self-cleavage was 0.174.

For G56U, the self-cleavage is 0.157.

Regarding G56C, the self-cleavage came to 0.156.

Consider G54U U67G, for which the self-cleavage is 0.171.

As to U55G U70C, the self-cleavage is 0.264.

In the case of G56U A59G, the self-cleavage was 0.238.

For the variant U55G U63A, the self-cleavage came out at 0.346.

Consider U55G G56A, for which the self-cleavage came out at 0.125.

In the case of G54U G56A, the self-cleavage came to 0.114.

Take G54U G56C: the self-cleavage turned out to be 0.24.

Take G54U U62A: the self-cleavage worked out at 0.229.

Regarding G54U U62G, the self-cleavage amounted to 0.166.

With U55C U62G, the self-cleavage stood at 0.132.

With G54C G57A, the self-cleavage stood at 0.0995.

Turning to G56C G57A, the self-cleavage stood at 0.115.

For the variant U53G U60G, the self-cleavage is 0.704.

Take U55A U70G: the self-cleavage came out at 0.342.

Turning to U55A U70C, the self-cleavage came out at 0.311.

On to G54C U67G, for which the self-cleavage amounted to 0.174.

In the case of G56C G69A, the self-cleavage was found to be 0.135.

As for G54U U55A, the self-cleavage was 0.354.

For the variant U55A G68A, the self-cleavage was 0.163.

For the variant G54A A71U, the self-cleavage was 0.309.

Take G54A A71G: the self-cleavage was found to be 0.426.

As to U55G G69A, the self-cleavage is 0.178.

For the variant U55C U60G, the self-cleavage was 0.347.

Turning to U55C U60A, the self-cleavage was 0.168.

With G54U C66G, the self-cleavage turned out to be 0.181.

On to G56C U62C, for which the self-cleavage was found to be 0.244.

Consider G56C U67C, for which the self-cleavage was 0.138.

U55C G57U: the self-cleavage was determined as 0.299.

Consider U55G A71C, for which the self-cleavage amounted to 0.708.

On to G54A U70C, for which the self-cleavage was 0.244.

With G54A U70G, the self-cleavage amounted to 0.387.

As to G54A U70A, the self-cleavage was determined as 0.409.

As for U55A A61U, the self-cleavage stood at 0.214.

With G54U A64U, the self-cleavage came out at 0.114.

As for G56C A61G, the self-cleavage came out at 0.155.

As to U55G U58G, the self-cleavage was 0.206.

Consider G54U A59G, for which the self-cleavage was 0.148.

Take U53G G68A: the self-cleavage was 0.179.

As for G54A U60C, the self-cleavage worked out at 0.912.

Regarding G54A U60A, the self-cleavage was determined as 0.409.

As for G54C C65U, the self-cleavage stood at 0.132.

In the case of G54C C65G, the self-cleavage stood at 0.151.

For the variant G54C A64C, the self-cleavage turned out to be 0.104.

G54A G68A: the self-cleavage was 0.206.

As for G56U A64C, the self-cleavage stood at 0.177.

Take G54U A61C: the self-cleavage worked out at 0.152.

As for U53G G69A, the self-cleavage is 0.363.

U53G C65U: the self-cleavage was 0.413.

Regarding U53G C65G, the self-cleavage turned out to be 0.0347.

Consider G54U A71U, for which the self-cleavage was 0.333.

As for G54U A71G, the self-cleavage is 0.552.

G54U G57C: the self-cleavage was determined as 0.177.

G54U G57A: the self-cleavage was 0.164.

Turning to G54U G57U, the self-cleavage turned out to be 0.282.

For the variant U53G U70C, the self-cleavage worked out at 0.783.

In the case of U53G U70A, the self-cleavage stood at 0.712.

G54C A61U: the self-cleavage was 0.105.

Turning to G54C A61G, the self-cleavage came out at 0.0386.

For U55C C65U, the self-cleavage stood at 0.27.

With G54C G68C, the self-cleavage turned out to be 0.221.

Turning to G54C G68U, the self-cleavage turned out to be 0.158.

With G54C U55C, the self-cleavage came to 0.245.

For the variant U55G A61U, the self-cleavage is 0.0838.

For the variant U55G A61C, the self-cleavage came to 0.21.

As to G54C A71C, the self-cleavage worked out at 0.961.

Take G54C A71U: the self-cleavage stood at 0.243.

As for U55C U63C, the self-cleavage worked out at 0.233.

As for U55A C66U, the self-cleavage came out at 0.258.

U55A C66G: the self-cleavage worked out at 0.24.

G56A U62C: the self-cleavage was 0.141.

Take G56A U62A: the self-cleavage was determined as 0.182.

Regarding G54A U62A, the self-cleavage worked out at 0.188.

As to G54A U62G, the self-cleavage amounted to 0.0558.

For the variant U55C U70G, the self-cleavage was found to be 0.203.

Turning to G54C U63C, the self-cleavage stood at 0.099.

As to G54C U63A, the self-cleavage is 0.103.

For the variant U55G C65A, the self-cleavage stood at 0.3.

Take U55C A64U: the self-cleavage came out at 0.154.

Regarding G56C U70C, the self-cleavage came to 0.134.

Regarding G56C U70A, the self-cleavage turned out to be 0.272.

For U53G U63A, the self-cleavage came to 0.13.

As for U53G U63C, the self-cleavage was 0.241.

On to G56U A61U, for which the self-cleavage turned out to be 0.124.

As for G56A U60A, the self-cleavage was found to be 0.121.

G56A U60C: the self-cleavage is 0.219.

Regarding U55A C65A, the self-cleavage turned out to be 0.204.

Regarding U53C U70G, the self-cleavage was found to be 0.765.

In the case of U53C U70C, the self-cleavage turned out to be 1.04.

For the variant G54C G69C, the self-cleavage was 0.0871.

As to G56A C65A, the self-cleavage came out at 0.097.

Turning to G56A C65G, the self-cleavage was determined as 0.214.

In the case of G56C A64U, the self-cleavage was found to be 0.0562.
